Columns and labels:
[1] = target: T1, second BIR (baculoviral IAP repeat) motif of XIAP (Homo sapiens, UniProt P98170); experiment: In vitro IAP (BIR) binding/interaction assay, GST-mediated pull-down
T1 construct: recombinant IAP fragment (second BIR (baculoviral IAP repeat) motif of XIAP)
Method: Interaction between AV peptoids and IAPs was examined by GST-mediated pull-down assays. Approximately 0.4 mg of a recombinant IAP fragment (second BIR (baculoviral IAP repeat) motif of XIAP) was bound to […] of glutathione resin as a GST-fusion protein and incubated with 0.5 mg of radiolabeled AV peptoids at room temperature. After extensive washing with an assay buffer containing 25 mM Tris, pH 8.0, 150 mM NaCl, and 2 mM dithiothreitol (DTT), the complex was eluted with 5 mM reduced glutathione and visualized by SDS-PAGE with Coomassie staining.
Smac stimulates activation of procaspase-3 by relieving the IAP inhibition^20, 21. All members of the IAP family contain at least one BIR (baculoviral IAP repeat) motif and many contain three^9.

procaspase-3 = experiment: Hela cell extracts: radiolabeled procaspase-3 activation assay; format: biochemical; conditions: S-100 extracts of HeLa cells, 35S-labeled caspase-3; AV peptoids (50 nM), Smac peptides 30–1000 mM; 30° C., 1 hr
Method: […] S-100 extracts of HeLa cells were incubated alone (Control), or with AV peptoids (50 nM) nM, or with […] of N-terminal Smac peptides in different lengths. The reactions were carried out with the addition of 1 mM DATP, 1 mM additional MgCl2, 0.2 mg/ml horse heart cytochrome c, and […] of in vitro translated, ^35S-labeled caspase-3 in a final volume of […]. The reaction mixtures were incubated at 30° C. for 1 hr followed by electrophoresis on a 15% PAGE gel. The gel was subsequently transferred onto a nitrocellulose filter and exposed to a phosphoimaging cassette.

Wap-ras tumors = experiment: In vivo therapy in the WAP-RAS transgenic model; conditions: Wap-ras transgenic mice with well developed tumors; peptoid 20 mpk po, paclitaxel 5 mpk ip
Method: Peptoid and Paclitaxel combination efficacy is also evaluated in the Wap-ras transgenic model.
Peptoid (20 mpk/dosing po) was dissolved in 20% hydroxyl-propyl-betacyclodexatrin (Vehicle I). 0.2 ml of peptoid solution is the oral dosing volume. Paclitaxel (5 mpk/dosing ip) was dissolved in a diluted ethanol/cremophor EL solution (vehicle II) and the i.p. dosing volume for paclitaxel was 0.1 ml.
The mice are weighed, randomized, and ear-marked on Day 0. Peptoid treatment and Vehicle I treatment began on Day 1 and continued every 12 hours until Day 21. Paclitaxel and Vehicle II treatments are started on Day 4 and continued daily on Day 5, 6, and 7.

T1 sequence (P98170 124-240 limits assumed): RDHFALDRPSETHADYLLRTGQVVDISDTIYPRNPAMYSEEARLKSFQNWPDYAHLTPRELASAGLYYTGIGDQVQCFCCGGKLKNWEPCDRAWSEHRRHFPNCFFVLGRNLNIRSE

## NH2-KQAIPVA-COOH (H-KQAIPVA-OH) [Smac-7R]
[1]; Table 4, GST pull-down with radiolabeled AV peptoid, grades 0, ++, +++, key not given
  IAP Binding: 0
procaspase-3
  activation of procaspase-3: did not

## CC(=O)O[C@H]1C(=O)[C@@]2(C)[C@H]([C@H](OC(=O)c3ccccc3)[C@]3(O)C[C@H](OC(=O)[C@H](O)[C@@H](NC(=O)c4ccccc4)c4ccccc4)C(C)=C1C3(C)C)[C@]1(OC(C)=O)CO[C@@H]1C[C@@H]2O [Paclitaxel]
Wap-ras tumors
  tumor response to treatment, single agent: do not respond

B1: Smac: Second mitochondria-derived activator of caspases (DIABLO); mature form contains 184 amino acids (protein, UniProt Q9NR28 22-239, looked up)
Diablo IAP-binding …: LCVPVVANFKKRCFSELIRPWHKTVTIGFGVTLCAVPIAQKSEPHSLSSEALMRRAVSLVTDSTSTFLSQTTYALIEAITEYTKAVYTLTSLYRQYTSLLGKMNSEEEDEVWQVIIGARAEMTSKHQEYLKLETTWMTAVGLSEMAAEAAYQTGADQASITARNHIQLVKLQVEEVHQLSRKAETKLAEAQIEELRQKTQEEGEERAESEQEAYLRED
[1]; second or third BIR domain of XIAP
  specific binding/interaction with IAP (BIR domain of XIAP): specifically interact

Source: patent US7094758B2, “Apoptotic compounds” (Board of Regents, The University of Texas System, priority 2000, dated 2006)
